From patent publication US20220259330A1 (SUNSHINE GUOJIAN PHARMACEUTICAL SHANGHAI, published 2022)
“And” between values parts separate entries of the source, which are not always exact repeats. Equal values may be shown once. One block for each binder: values may come before it.

Experiments:
[1] = target: T1, PD1-His (human, UniProt Q15116 25-170); assay: SPR, Biacore 8K, antibody captured on Protein A/G chip, PD1-His injected
T1 construct: extracellular domain; In-house protein; also called extracellular domain protein of human PD-1 with a 6*His tag
T1 sequence (Q15116 other isoform, or with tags, fused parts or gaps): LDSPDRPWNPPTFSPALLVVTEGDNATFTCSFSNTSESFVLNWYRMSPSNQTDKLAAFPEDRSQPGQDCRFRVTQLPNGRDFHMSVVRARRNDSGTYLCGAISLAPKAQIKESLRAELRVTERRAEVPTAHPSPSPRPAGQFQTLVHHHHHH

[2] = target: T2, recombinant VEGF165 (Acrobiosystems, Cat. No. VE5-H4210) (UniProt P15692-4 27-191); assay: bridging ELISA: VEGF165 coated, antibody titrated, biotinylated human PD-1 at 200 ng/ml and streptavidin-HRP for detection
T2 construct: Bought; construct not described
T2 sequence (P15692 other isoform, or with tags, fused parts or gaps): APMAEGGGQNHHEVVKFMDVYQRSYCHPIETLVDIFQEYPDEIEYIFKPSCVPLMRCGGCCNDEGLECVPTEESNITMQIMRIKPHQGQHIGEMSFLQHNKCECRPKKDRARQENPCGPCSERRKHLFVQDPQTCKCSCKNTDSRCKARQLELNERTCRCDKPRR

[3] = target: T1, PD1-His; assay: ELISA, plate coated with PD1-His
[4] = target: T3, biotinylated human PD-1 extracellular recombinant protein (Sino Biological, Cat. No. 10377-H08H-B) (human, UniProt Q15116 25-170, biotinylated); assay: bridging ELISA: VEGF165 coated, antibody titrated, biotinylated human PD-1 at 200 ng/ml and streptavidin-HRP for detection
T3 construct: extracellular domain; Bought; detection reagent in the bridging ELISAs
T3 sequence (Q15116 25-170): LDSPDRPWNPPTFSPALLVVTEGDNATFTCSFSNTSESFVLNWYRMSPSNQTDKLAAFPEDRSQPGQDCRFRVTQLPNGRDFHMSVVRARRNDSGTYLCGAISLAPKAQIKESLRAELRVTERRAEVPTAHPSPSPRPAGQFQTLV

[5] = target: T4, LAG3-ECD-His (human, UniProt P18627 23-450); assay: ELISA, LAG3-ECD-His coated
T4 construct: extracellular domain; Bought; not shown: polyhistidine tag
T4 sequence (looked up): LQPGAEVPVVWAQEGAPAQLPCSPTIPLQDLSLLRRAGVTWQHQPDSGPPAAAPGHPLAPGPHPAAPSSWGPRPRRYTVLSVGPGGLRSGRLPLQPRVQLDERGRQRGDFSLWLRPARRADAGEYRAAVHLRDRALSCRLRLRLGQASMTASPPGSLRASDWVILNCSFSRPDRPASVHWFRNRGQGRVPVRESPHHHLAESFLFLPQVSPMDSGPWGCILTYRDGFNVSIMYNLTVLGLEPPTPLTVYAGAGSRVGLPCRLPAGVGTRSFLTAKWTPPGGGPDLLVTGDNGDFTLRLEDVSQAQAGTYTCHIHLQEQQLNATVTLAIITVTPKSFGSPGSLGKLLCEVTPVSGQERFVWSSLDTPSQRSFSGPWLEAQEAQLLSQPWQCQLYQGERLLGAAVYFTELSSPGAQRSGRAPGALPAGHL

[6] = target: T4, LAG3-ECD-His; assay: ELISA, plate coated with LAG3-ECD-His
[7] = target: T3, biotinylated human PD-1 extracellular …; assay: bridging ELISA: plate coated with TGF-β1, antibody titrated, detected with biotinylated human PD-1 ECD and Streptavidin-HRP; antibody first captured on plate-coated TGF-β1
[8] = target: T5, TGF-β1 (Sino Biological, Cat. No. 10804-HNAC) (UniProt P01137 279-390); assay: ELISA, plate coated with TGF-β1
T5 sequence (P01137 279-390 limits assumed): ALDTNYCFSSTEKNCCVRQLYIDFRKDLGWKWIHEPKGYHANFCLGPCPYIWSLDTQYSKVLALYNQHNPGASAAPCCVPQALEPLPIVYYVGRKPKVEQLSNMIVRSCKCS

[9] = target: T5, TGF-β1 (Sino Biological, Cat. No. …); assay: bridging ELISA: TGF-β1 coated, antibody titrated, biotinylated human PD-1 and streptavidin-HRP for detection
[10] = target: T3, biotinylated human PD-1 extracellular …; assay: as above

binding result [4]: no binding
B2: 601 (antibody, human IgG1, kappa, V domains shown)
VH: EVQLVESGGGLVQPGGSLRLSCAASGYTFTNYGMNWVRQAPGKGLEWVGWINTYTGEPTYAADFKRRFTFSLDTSKSTAYLQMNSLRAEDTAVYYCAKYPHYYGSSHWYFDVWGQGTLVTVSS
VL: DIQMTQSPSSLSASVGDRVTITCSASQDISNYLNWYQQKPGKAPKVLIYFTSSLHSGVPSRFSGSGSGTDFTLTISSLQPEDFATYYCQQYSTVPWTFGQGTKVEIKR
notes: Anti-VEGF, IgG1, kappa; also called Bevacizumab

binding result [9]: no binding
EC50 [3]: 0.392 nM and 0.432 nM
B5: 14-Hu (antibody, human IgG4 S228P, kappa, V domains shown)
VH: QVQLVQSGAEVKKPGASVKVSCKASGYSFTGYTMNWVRQAPGQGLEWIGLINPYNGDTSYNQKFKGRATVTVDKSTSTAYMELSSLRSEDTAVYYCARWRYTMDYWGQGTLVTVSS
VL: DIVLTQSPASLAVSPGQRATITCRASESVDNYGNSFMNWYQQKPGQPPKPLIYFASNLESGVPARFSGSGSRTDFTLTINPVEADDTANYYCQQNNEAPPTFGQGTKVEIKR
notes: Humanized anti-PD-1, IgG4 (S228P), kappa; also called 14-Hu-HC+14-Hu-LC

binding result [10]: no binding
EC50 [8]: 0.0711 nM and 0.0803 nM
B6: mAb127-HC+14-Hu-LC (antibody, human IgG4 S228P, kappa, V domains shown)
VH: QVQLVQSGAEVKKPGASVKVSCKASGYTFTSEWMNWVRQAPGQGLEWMGQIFPALGSTNYNEMYEGRVTMTTDTSTSTAYMELRSLRSDDTAVYYCARGIGNYALDAMDYWGQGTLVTVSS
VL: DIVLTQSPASLAVSPGQRATITCRASESVDNYGNSFMNWYQQKPGQPPKPLIYFASNLESGVPARFSGSGSRTDFTLTINPVEADDTANYYCQQNNEAPPTFGQGTKVEIKR
notes: Hybrid antibody

The remaining lines, values behind:

B1: 20-Hu-HC+601-LC-V94L (antibody, human IgG4 S228P, kappa, V domains shown)
VH: EVQLVESGGGLVQPGGSLRLSCAASGFVFSNYDMSWVRQAPGKRLEWVATISGGGGYTYYSDSVKGRFTISRDNAKNSLYLQMNSLRAEDTAVYYCASPYGHYGFEYWGQGTLVTVSS
VL: DIQMTQSPSSLSASVGDRVTITCSASQDISNYLNWYQQKPGKAPKVLIYFTSSLHSGVPSRFSGSGSGTDFTLTISSLQPEDFATYYCQQYSTLPWTFGQGTKVEIKR
Kd [1]: 1.59 nM
koff [1]: 4.54e-05 s⁻¹
kon [1]: 28600 M⁻¹ s⁻¹
binding result [2]: no binding
EC50 [3]: 0.308 nM and 0.331 nM

B3: 5E7-Hu (antibody, human IgG4 S228P, kappa, V domains shown)
VH: EVQLVESGGGLVKPGGSLRLSCAASGFTFSDDYMAWFRQAPGKRLEWVASISHGGDYIYYADNLKGRFTISRDNAKNSLYLQMNSLRAEDTAVYFCSRDRRSIDYWGQGTLVTVSS
VL: DIQMTQSPSSLSASVGDRVTITCRASQDISNYLSWYQQKPGKTIKLLIYYTSRLHSGVPSRFSGSGSGTDYTFTISSLQPEDIATYFCQQGKTLPYTFGQGTKVEIKR
notes: Humanized anti-human LAG-3, IgG4 (S228P), kappa; also called 5E7-Hu-HC+5E7-Hu-LC
EC50 (read off the curve) [5]: ~0.1 nM
EC50 [6]: 0.147 nM

B4: 14-Fab-127-IgG4 (bispecific antibody)
heavy: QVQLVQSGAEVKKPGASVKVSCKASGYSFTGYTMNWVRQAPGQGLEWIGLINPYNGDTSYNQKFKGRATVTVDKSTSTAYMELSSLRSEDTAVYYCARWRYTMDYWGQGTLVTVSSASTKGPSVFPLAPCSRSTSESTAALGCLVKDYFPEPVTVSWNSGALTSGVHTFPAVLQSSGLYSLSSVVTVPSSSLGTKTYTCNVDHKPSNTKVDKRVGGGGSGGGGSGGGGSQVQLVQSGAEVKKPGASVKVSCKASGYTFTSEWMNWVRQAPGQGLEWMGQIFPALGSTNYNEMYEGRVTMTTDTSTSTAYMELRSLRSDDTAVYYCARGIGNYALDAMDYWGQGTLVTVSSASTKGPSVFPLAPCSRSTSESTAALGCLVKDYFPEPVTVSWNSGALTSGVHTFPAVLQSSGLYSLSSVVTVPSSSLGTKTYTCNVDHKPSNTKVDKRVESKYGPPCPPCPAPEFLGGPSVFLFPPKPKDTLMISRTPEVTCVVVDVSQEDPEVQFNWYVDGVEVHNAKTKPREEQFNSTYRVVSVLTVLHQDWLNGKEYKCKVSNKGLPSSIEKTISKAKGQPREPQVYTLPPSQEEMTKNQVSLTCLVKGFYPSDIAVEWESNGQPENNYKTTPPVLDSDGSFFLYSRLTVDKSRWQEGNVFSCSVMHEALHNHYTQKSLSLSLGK
light: DIVLTQSPASLAVSPGQRATITCRASESVDNYGNSFMNWYQQKPGQPPKPLIYFASNLESGVPARFSGSGSRTDFTLTINPVEADDTANYYCQQNNEAPPTFGQGTKVEIKRTVAAPSVFIFPPSDEQLKSGTASVVCLLNNFYPREAKVQWKVDNALQSGNSQESVTEQDSKDSTYSLSSTLTLSKADYEKHKVYACEVTHQGLSSPVTKSFNRGEC
EC50 [7]: 0.278 nM
EC50 [3]: 0.387 nM
EC50 [8]: 0.152 nM
